The results in this text go back to patent US20120058906A1 (published 2012).

Test [1] has as its target T1, rHuman IGF-1 sR (IGF-1 sR), CF (R&D Systems Cat#391-GR) (human, UniProt P08069 31-932).
T1 construct: Bought soluble receptor; also called insulin-like growth factor-1 soluble receptor; IGF-R1
Put plainly: MSD ECL multi-spot assay, antigen spotted on plate, Fab 0.93 uM; blank spot 4760.

The target of test [2] is T2, rHuman Notch-1/Fc Chimera, CF (R&D Systems Cat#3647-TK) (human, UniProt P46531 19-526).
T2 construct: Bought protein; Fc part of the bought chimera not given
The description is as above.

Test [3] deals with T3, rHuman Erythropoietin R/Fc Chimera, CF (R&D Systems Cat#963-ER) (human, UniProt P19235 25-250).
T3 construct: Bought protein; also called EPOR; EPO R/Fc; Fc part of the bought chimera not given
T3 sequence: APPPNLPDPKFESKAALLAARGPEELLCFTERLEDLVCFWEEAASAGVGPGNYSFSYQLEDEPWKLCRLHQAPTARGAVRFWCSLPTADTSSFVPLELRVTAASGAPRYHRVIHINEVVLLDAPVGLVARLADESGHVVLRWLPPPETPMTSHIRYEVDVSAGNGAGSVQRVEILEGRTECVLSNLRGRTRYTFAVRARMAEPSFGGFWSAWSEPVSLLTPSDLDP
The description is as above.

Test [4] concerns the target T1, rHuman IGF-1 sR (IGF-1 sR), CF (R&D …). Nature of the test: MSD ECL multi-spot assay, antigen spotted on plate, Fab 1.19 uM; blank spot 11543.
Test [5] addresses T4, rHuman EGF R/Fc Chimera, CF (R&D Systems Cat#344-ER) (human, UniProt P00533 25-645).
T4 construct: Bought protein; also called epidermal growth factor receptor; Fc part of the bought chimera not given
The description is as above.

Test [6] concerns the target T5, Recombinant Human DLL4 (R&D Systems Cat#1506-D4/CF) (human, UniProt Q9NR61 27-524).
T5 construct: Bought protein; also called delta-like protein 4; rHuman DLL4
The test is described as above.

Test [7] has as its target T6, rHuman P-Cadherin/Fc Chimera, CF (R&D Systems Cat#861-PC) (human, UniProt P22223 108-654).
T6 construct: Bought protein; also called CDH3; Fc part of the bought chimera not given
The test is described as above.

Test [8] concerns the target T2, rHuman Notch-1/Fc Chimera, CF (R&D …). Described as above.
Test [9] has as its target T3, rHuman Erythropoietin R/Fc Chimera, CF …. Described as above.
In test [10] the target is T5, Recombinant Human DLL4 (R&D Systems …). Nature of the test: MSD ECL multi-spot assay, antigen spotted on plate, Fab 0.48 uM; blank spot 2877.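 Further: blank spot per well as comparator with Hit at signal to blank ratio of 4 or more.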
Test [11] has as its target T2, rHuman Notch-1/Fc Chimera, CF (R&D …). The description is as above.
Test [12] deals with T1, rHuman IGF-1 sR (IGF-1 sR), CF (R&D …). Nature of the test: MSD ECL multi-spot assay, antigen spotted on plate, Fab 0.13 uM; blank spot 786.
The target in test [13] is T4, rHuman EGF R/Fc Chimera, CF (R&D …). Described as above.
The target of test [14] is T7, rHuman CD44/Fc Chimera, CF (R&D Systems Cat#3660-CD) (human, UniProt P16070 21-220).
T7 construct: Bought protein; Fc part of the bought chimera not given
The test is described as above.

The target in test [15] is T5, Recombinant Human DLL4 (R&D Systems …). The description is as above.
Test [16] has as its target T2, rHuman Notch-1/Fc Chimera, CF (R&D …). The test is described as above.
The target of test [17] is T8, rHuman ErbB2/Fc Chimera, CF (R&D Systems Cat#1129-ER) (human, UniProt P04626 23-652).
T8 construct: Bought protein; also called HER2/neu; human epidermal growth factor 2 receptor; Fc part of the bought chimera not given
The test is described as above.

Test [18] addresses T9, rHuman HGF R/c-MET/Fc Chimera, CF (R&D Systems Cat#358-MT/CF) (human, UniProt P08581 25-932).
T9 construct: Bought protein; also called HGF R/Fc; hepatocyte growth factor receptor; Fc part of the bought chimera not given
Described as above.

Test [19] concerns the target T3, rHuman Erythropoietin R/Fc Chimera, CF …. The test is described as above.
Test [20] has as its target T6, rHuman P-Cadherin/Fc Chimera, CF (R&D …). Put plainly: MSD ECL multi-spot assay, antigen spotted on plate, Fab 0.28 uM; blank spot 1773.
In test [21] the target is T1, rHuman IGF-1 sR (IGF-1 sR), CF (R&D …). Nature of the test: MSD ECL multi-spot assay, antigen spotted on plate, Fab 0.51 uM; blank spot 1393.
The target of test [22] is T7, rHuman CD44/Fc Chimera, CF (R&D Systems …). The test is described as above.
The target of test [23] is T5, Recombinant Human DLL4 (R&D Systems …). The description is as above.
The target in test [24] is T8, rHuman ErbB2/Fc Chimera, CF (R&D …). The test is described as above.
In test [25] the target is T9, rHuman HGF R/c-MET/Fc Chimera, CF (R&D …). Described as above.
Test [26] concerns the target T1, rHuman IGF-1 sR (IGF-1 sR), CF (R&D …). Put plainly: MSD ECL multi-spot assay, antigen spotted on plate, Fab 0.06 uM; blank spot 842.
For test [27], the target named is T7, rHuman CD44/Fc Chimera, CF (R&D Systems …). The description is as above.
Test [28] has as its target T5, Recombinant Human DLL4 (R&D Systems …). The test is described as above.
In test [29] the target is T8, rHuman ErbB2/Fc Chimera, CF (R&D …). The description is as above.

B1: Fab VH1-46_IGHD3-10*01_IGHJ4*01 & L12_IGKJ1*01 (Fab, V domains shown)
VH: QVQLVQSGAEVKKPGASVKVSCKASGYTFTSYYMHWVRQAPGQGLEWMGIINPSGGSTSYAQKFQGRVTMTRDTSTSTVYMELSSLRSEDTAVYYCAREYYYGSGSYYNDYFDYWGQGTLVTVSS
VL: not shown
As for B1, the ECL signal in test [1] is 13900; in test [2] it was 23700; in test [3], 16700.

B2: Fab VH1-46_IGHD6-13*01_IGHJ4*01 & L2_IGKJ1*01 (Fab, V domains shown)
VH: QVQLVQSGAEVKKPGASVKVSCKASGYTFTSYYMHWVRQAPGQGLEWMGIINPSGGSTSYAQKFQGRVTMTRDTSTSTVYMELSSLRSEDTAVYYCAREGYSSSWYDYFDYWGQGTLVTVSS
VL: not shown
For the molecule B2, the ECL signal in test [4] worked out at 14100; in [5] it was 32000; in test [6], 39600; in test [7], 34600; in test [8], 41700; in test [9] it was 141000.

B3: Fab VH1-46_IGHD6-13*01_IGHJ4*01 & A27_IGKJ1*01 (Fab, V domains shown)
VH: QVQLVQSGAEVKKPGASVKVSCKASGYTFTSYYMHWVRQAPGQGLEWMGIINPSGGSTSYAQKFQGRVTMTRDTSTSTVYMELSSLRSEDTAVYYCAREGYSSSWYDYFDYWGQGTLVTVSS
VL: not shown
notes: Fab from E. coli; VH joined to the CH1 (Flag and His tags) of Plasmid A, VL to the kappa CL of Plasmid C
For the molecule B3, the ECL signal in test [10] turned out to be 13700; in test [11], 12800.

B4: Fab VH1-8_IGHD2-2*01_IGHJ6*01 & L12_IGKJ1*01 (Fab, V domains shown)
VH: QVQLVQSGAEVKKPGASVKVSCKASGYTFTSYDINWVRQATGQGLEWMGWMNPNSGNTGYAQKFQGRVTMTRNTSISTAYMELSSLRSEDTAVYYCARGGYCSSTSCYADYYYYYGMDVWGQGTTVTVSS
VL: not shown
For the molecule B4, the ECL signal in [12] worked out at 1170; in test [13], 859; in test [14] it was 932; in test [15], 9850; in test [16], 1320; in [17] it was 840. Besides, the ECL signal in test [18] was 969; in test [19], 1110.

B5: Fab VH1-46_IGHD2-15*01_IGHJ2*01 & L12_IGKJ1*01 (Fab, V domains shown)
VH: QVQLVQSGAEVKKPGASVKVSCKASGYTFTSYYMHWVRQAPGQGLEWMGIINPSGGSTSYAQKFQGRVTMTRDTSTSTVYMELSSLRSEDTAVYYCAREGYCSGGSCYSYWYFDLWGRGTLVTVSS
VL: not shown
In turn, B5 registered an ECL signal in test [20] of 8060.

B6: Fab VH4-34_IGHD7-27*01_IGHJ4*01 & L5_IGKJ1*01 (Fab, V domains shown)
VH: QVQLQQWGAGLLKPSETLSLTCAVYGGSFSGYYWSWIRQPPGKGLEWIGEINHSGSTNYNPSLKSRVTISVDTSKNQFSLKLSSVTAADTAVYYCARANWGDYFDYWGQGTLVTVSS
VL: DIQMTQSPSSVSASVGDRVTITCRASQGISSWLAWYQQKPGKAPKLLIYAASSLQSGVPSRFSGSGSGTDFTLTISSLQPEDFATYYCQQANSFPPWTFGQGTKVEIKR
notes: as for B3
For B6, the ECL signal was 1740 in test [21]; 1880 in test [22]; 5650 in [23]; 1700 in test [24]; 1740 in test [25].

B7: Fab VH1-3_IGHD4-23*01_IGHJ4*01 & L12_IGKJ1*01 (Fab, V domains shown)
VH: QVQLVQSGAEVKKPGASVKVSCKASGYTFTSYAMHWVRQAPGQRLEWMGWSNAGNGNTKYSQEFQGRVTITRDTSASTAYMELSSLRSEDMAVYYCARDDYGGNSDYFDYWGQGTLVTVSS
VL: not shown
B7: the ECL signal in test [26] was found to be 2320; in test [27], 1680; in [28], 13600; in [29], 1570.
